From US20080201790A1 (published 2008)

Columns and labels:
Assay in all cases: GST fusion pull-down on glutathione-Sepharose, anti-MEKK4 immunoblot
[1] = target: T1, GST-Cdc42 (GDP bound) on glutathione-Sepharose (UniProt P60953 1-191)
T1 construct: Loaded with GDP; not shown: glutathione S-transferase fusion partner
Method: (§1) Each GST fusion protein had GTPγs or GDP bound to the Cdc42, Rac or Ras moiety of the fusion protein. Following the incubation the beads were washed extensively and the bound proteins removed in SDS-Laemmli buffer and resolved by SDS-PAGE using 10% acrylamide gels.

[2] = target: T2, GST-Rac (GDP bound) on glutathione-Sepharose (UniProt P08515 1-218 = GST)
T2 construct: Loaded with GDP
T2 sequence (P08515 whole entry): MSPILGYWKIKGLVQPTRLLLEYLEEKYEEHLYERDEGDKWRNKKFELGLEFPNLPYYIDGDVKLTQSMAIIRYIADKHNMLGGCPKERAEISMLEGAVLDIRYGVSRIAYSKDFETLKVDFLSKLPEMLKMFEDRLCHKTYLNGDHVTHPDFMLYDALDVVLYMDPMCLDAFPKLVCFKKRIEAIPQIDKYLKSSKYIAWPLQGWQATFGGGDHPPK
Method: as §1

[3] = target: T3, GST fusion protein of Ha-Ras (GTPγS bound) on glutathione-Sepharose (UniProt P08515 1-218 = GST; P01112 1-189)
T3 construct: also called GST-Ras
T3 sequence (P08515 1-218, tags or fused parts left off): as the sequence (P08515 whole entry) above
Method: as §1

[4] = target: T4, GST fusion protein of Ha-Ras (GDP bound) on glutathione-Sepharose (UniProt P08515 1-218 = GST; P01112 1-189)
T4 construct: also called GST-Ras
T4 sequence (P08515 1-218, tags or fused parts left off): as the sequence (P08515 whole entry) above
Method: as §1

T1 sequence (P60953 whole entry, the tested form may be a part): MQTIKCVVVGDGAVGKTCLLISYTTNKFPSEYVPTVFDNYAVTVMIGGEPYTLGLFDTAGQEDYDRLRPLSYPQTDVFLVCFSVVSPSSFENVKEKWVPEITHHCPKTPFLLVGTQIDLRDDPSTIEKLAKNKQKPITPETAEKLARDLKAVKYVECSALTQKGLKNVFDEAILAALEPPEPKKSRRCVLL

B1: MEKK4 from a Cos cell transient transfection (enzyme)
chain: MRDAIAEPVPPPALADTPAAAMEELRPAPPPQPEPDPECCPAARQECMLGESARKSMESDPEDFSDETNTETLYGTSPPSTPRQMKRLSAKHQRNSAGRPASRSNLKEKMNTPSQSPHKDLGKGVETVEEYSYKQEKKIRATLRTTERDHKKNAQCSFMLDSVAGSLPKKSIPDVDLNKPYLSLGCSNAKLPVSMPMPIARTARQTSRTDCPADRLKFFETLRLLLKLTSVSKKKDREQRGQENTAAFWFNRSNELIWLELQAWHAGRTINDQDLFLYTARQAIPDIINEILTFKVNYGSIAFSSNGAGFNGPLVEGQCRTPQETNRVGCSSYHEHLQRQRVSFEQVKRIMELLEYMEALYPSLQALQKDYERYAAKDFEDRVQALCLWLNITKDLNQKLRIMGTVLGIKNLSDIGWPVFEIPSPRPSKGYEPEDEVEDTEVELRELESGTEESDEEPTPSPRVPELRLSTDTILDSRSQGCVSRKLERLESEEDSIGWGTADCGPEASRHCLTSIYRPFVDKALKQMGLRKLILRLHKLMNGSLQRARVALVKDDRPVEFSDFPGPMWGSDYVQLSGTPPSSEQKCSAVSWEELRAMDLPSFEPAFLVLCRVLLNVIHECLKLRLEQRPAGEPSLLSIKQLVRECKEVLKGGLLMKQYYQFMLQEVLGGLEKTDCNMDAFEEDLQKMLMVYFDYMRSWIQMLQQLPQASHSLKNLLEEEWNFTKEITHYIRGGEAQAGKLFCDIAGMLLKSTGSFLESGLQESCAELWTSADDNGAADELRRSVIEISRALKELFHEARERASKALGFAKMLRKDLEIAAEFVLSASARELLDALKAKQYVKVQIPGLENLHVFVPDSLAEEKKIILQLLNAATGKDCSKDPDDVFMDAFLLLTKHGDRARDSEDGWGTWEARAVKIVPQVETVDTLRSMQVDNLLLVVMESAHLVLQRKAFQQSIEGLMTVRHEQTSSQPIIAKGLQQLKNDALELCNRISDAIDRVDHMFTLEFDAEVEESESATLQQYYREAMIQGYNFGFEYHKEVVRLMSGEFRQKIGDKYISFAQKWMNYVLTKCESGRGTRPRWATQGFDFLQAIEPAFISALPEDDFLSLQALMNECIGHVIGKPHSPVTAIHRNSPRPVKVPRCHSDPPNPHLIIPTPEGFSTRSVPSDARTHGNSVAAAAAVRAAATTAAGRPGPGGGDSVPAKPVNTAPDTRGSSVPENDRLASIAAELQFRSLSRHSSPTEERDEPAYPRSDSSGSTRRSWELRTLISQTKDSASKQGPIEAIQKSVRLFEERRYREMRRKNIIGQVCDTPKSYDNVMHVGLRKVTFKWQRGNKIGEGQYGKVYTCISVDTGELMAMKEIRFQPNDHKTIKETADELKIFEGIKHPNLVRYFGVELHREEMYIFMEYCDEGTLEEVSRLGLQEHVIRLYTKQITVAINVLHEHGIVHRDIKGANIFLTSSGLIKLGDFGCSVKLKNNAQTMPGEVNSTLGTAAYMAPEVITRAKGEGHGRAADIWSLGCVVIEMVTGKRPWHEYEHNFQIMYKVGMGHKPPIPERLSPEGKAFLSHCLESDPKIRWTASQLLDHAFVKVCTDEE
notes: also called MEKK4.2
percent of the MEKK4 bound in the presence of GTPγS [1]: < 10%
percent of the MEKK4 bound in the presence of GTPγS [2]: < 10%

B2: recombinant MEKK4 protein expressed in E. coli, residues 1261-1597 of the full length protein (enzyme)
chain: RRSWELRTLISQTKDSASKQGPIEAIQKSVRLFEERRYREMRRKNIIGQVCDTPKSYDNVMHVGLRKVTFKWQRGNKIGEGQYGKVYTCISVDTGELMAMKEIRFQPNDHKTIKETADELKIFEGIKHPNLVRYFGVELHREEMYIFMEYCDEGTLEEVSRLGLQEHVIRLYTKQITVAINVLHEHGIVHRDIKGANIFLTSSGLIKLGDFGCSVKLKNNAQTMPGEVNSTLGTAAYMAPEVITRAKGEGHGRAADIWSLGCVVIEMVTGKRPWHEYEHNFQIMYKVGMGHKPPIPERLSPEGKAFLSHCLESDPKIRWTASQLLDHAFVKVCTDEE
notes: No tag is stated; also called truncated recombinant MEKK4
percent of the MEKK4 bound in the presence of GTPγS [1]: < 10%
binding result [3]: no binding
binding result [4]: no binding
percent of the MEKK4 bound in the presence of GTPγS [2]: < 10%
